Our source for the stoichiometry N values is PMC2917047.

The assay deals with PDE6αβ catalytic dimer of rod cGMP phosphodiesterase 6 (bovine) (UniProt P11541). Briefly: SDS-PAGE with Coomassie Blue densitometry of the purified complexes.
Sequence of PDE6αβ catalytic dimer of rod cGMP phosphodiesterase 6 (bovine) (P11541 whole entry, chain 1 of 2): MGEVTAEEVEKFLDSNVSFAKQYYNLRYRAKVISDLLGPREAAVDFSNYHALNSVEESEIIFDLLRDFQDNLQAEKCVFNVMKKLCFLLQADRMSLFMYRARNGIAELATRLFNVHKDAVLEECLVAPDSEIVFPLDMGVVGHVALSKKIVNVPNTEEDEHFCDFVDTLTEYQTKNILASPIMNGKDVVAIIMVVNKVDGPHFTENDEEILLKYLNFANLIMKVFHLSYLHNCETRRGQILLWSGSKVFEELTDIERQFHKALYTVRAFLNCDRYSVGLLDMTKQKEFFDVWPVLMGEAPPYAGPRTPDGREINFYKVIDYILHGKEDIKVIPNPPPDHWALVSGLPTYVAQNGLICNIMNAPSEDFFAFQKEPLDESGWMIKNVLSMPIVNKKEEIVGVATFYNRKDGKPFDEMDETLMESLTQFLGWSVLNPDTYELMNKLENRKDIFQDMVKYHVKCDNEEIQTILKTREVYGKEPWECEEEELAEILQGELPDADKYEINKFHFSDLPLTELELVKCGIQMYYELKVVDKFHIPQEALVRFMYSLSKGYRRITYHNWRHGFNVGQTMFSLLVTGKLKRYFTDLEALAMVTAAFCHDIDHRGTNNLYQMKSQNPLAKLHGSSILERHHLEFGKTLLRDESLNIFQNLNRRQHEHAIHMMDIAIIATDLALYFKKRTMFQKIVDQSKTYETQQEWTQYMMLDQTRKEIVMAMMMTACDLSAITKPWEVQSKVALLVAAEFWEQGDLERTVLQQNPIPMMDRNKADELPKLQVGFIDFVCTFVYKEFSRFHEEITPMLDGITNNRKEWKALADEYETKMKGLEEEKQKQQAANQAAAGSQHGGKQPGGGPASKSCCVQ
Sequence of PDE6αβ catalytic dimer of rod cGMP phosphodiesterase 6 (bovine) (P23439 whole entry, chain 2 of 2, further chain): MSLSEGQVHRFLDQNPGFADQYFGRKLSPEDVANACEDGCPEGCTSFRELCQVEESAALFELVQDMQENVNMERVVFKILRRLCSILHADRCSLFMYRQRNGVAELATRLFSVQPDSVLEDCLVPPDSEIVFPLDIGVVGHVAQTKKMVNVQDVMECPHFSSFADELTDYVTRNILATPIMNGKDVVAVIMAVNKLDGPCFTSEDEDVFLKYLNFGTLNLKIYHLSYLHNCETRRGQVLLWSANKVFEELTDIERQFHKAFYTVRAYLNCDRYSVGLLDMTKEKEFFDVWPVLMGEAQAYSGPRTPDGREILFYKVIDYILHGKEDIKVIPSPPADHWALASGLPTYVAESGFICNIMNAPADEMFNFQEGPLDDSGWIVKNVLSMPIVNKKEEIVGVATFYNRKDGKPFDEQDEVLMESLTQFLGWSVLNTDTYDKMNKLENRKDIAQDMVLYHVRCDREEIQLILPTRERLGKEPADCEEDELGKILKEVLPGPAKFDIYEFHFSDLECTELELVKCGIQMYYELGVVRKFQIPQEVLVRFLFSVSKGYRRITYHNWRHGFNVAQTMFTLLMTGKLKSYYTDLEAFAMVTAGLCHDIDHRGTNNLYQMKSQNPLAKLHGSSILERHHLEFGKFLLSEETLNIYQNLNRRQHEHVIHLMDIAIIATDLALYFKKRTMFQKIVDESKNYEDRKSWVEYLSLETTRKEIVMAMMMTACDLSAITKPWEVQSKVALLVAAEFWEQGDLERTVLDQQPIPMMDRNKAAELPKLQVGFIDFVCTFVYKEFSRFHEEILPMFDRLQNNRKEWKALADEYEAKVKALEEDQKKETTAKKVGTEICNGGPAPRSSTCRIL

B1: PDE6γ regulatory (inhibitory) subunit of rod cGMP phosphodiesterase 6 (natural protein)
chain: MNLEPPKAEIRSATRVMGGPVTPRKGPPKFKQRQTRQFKSKPPKKGVQGFGDDIPGMEGLGTDITVICPWEAFNHLELHELAQYGII
Usually stoichiometry N stands for the number of molecules, sites or subunits per partner or assembly. With B1, the stoichiometry N stood at 2.
